Measured values published in the supplement of paper PMC7877785.
± gives the uncertainty stated by the source.

Test: self-splicing fitness, log relative to wild type (ln ratio); higher = more splicing; Tetrahymena group I intron in knt gene, E. coli kanamycin selection, DiMSum; sequences stand for … in CUCUCU…GGAGGGAAAAGUUAUCAGGCAUGCACCUGGUAGCUAGUCUUUAAACCAAUAGAUUGCAUCGGUUUAAAAGGCAAGACCGUCAAAUUGCGGGAAAGGGGUCAACAGCCGUUCAGUACCAAGUCUCAGGGGAAACUUUGAGAUGGCCUUGCAAAGGGUAUGGUAAUAAGCUGACGGACAUGGUCCUAACCACGCAGCCAAGUCCUAAGUCAACAGAUCUUCUGUUGAUAUGGAUGCAGUUCACAGACUAAAUGUCGGUCGGGGAAGAUGUAUUCUUCUCAUAAGAUAUAGUCGGACCUCUCCUUAAUGGGAGCUAGCGGAUGAAGUGAUGCAACACUGGAGCCGCUGGGAACUAAUUUGUAUGCGAAAGUAUAUUGAUUAGUUUUGGAGUACUCGUGGUCG
Method in brief: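 Colonies from six replicate transformations of E. coli BL21(DE3) were pooled and amplicon-sequenced on an Illumina HiSeq 2500. The library placed an intron with all eight P1ex-region nucleotides randomised inside the knt kanamycin-resistance gene on pET-22b(+), and cells grew overnight at 37°C or 30°C on LB agar with or without 25 μg/mL kanamycin (plus 100 μg/mL carbenicillin, 50 μM IPTG, 0.2% rhamnose). Fitness is the DiMSum error-weighted combination of wild-type-normalised replicate fold changes, kanamycin versus none.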

Row | Sequence | self-splicing fitness (ln) (30 °C) | self-splicing fitness (ln) (37 °C)
1 | CCACAGCAAUAUUACGCGGA | -3.84 ± 0.21 | -1.01 ± 0.11
2 | CCACAGCAAUAUUACGCGGU | -3.46 ± 0.17 | -1.94 ± 0.15
3 | CCACAGCAAUAUUACGCGUC | -3.13 ± 0.16 | -3.14 ± 0.27
4 | CCACAGCAAUAUUACGCGUG | -3.86 ± 0.18 | -2.38 ± 0.14
5 | CCACAGCAAUAUUACGGAAA | -3.47 ± 0.23 | -3.54 ± 0.29
6 | CCACAGCAAUAUUACGGACG | -0.832 ± 0.05 | -0.23 ± 0.066
7 | CCACAGCAAUAUUACGGAGA | -3.01 ± 0.21 | -1.77 ± 0.17
8 | CCACAGCAAUAUUACGGCUC | -3.39 ± 0.18 | -1.79 ± 0.16
9 | CCACAGCAAUAUUACGGGUU | -3.68 ± 0.16 | -2.58 ± 0.21
10 | CCACAGCAAUAUUACGGUAC | -4.19 ± 0.19 | -2.55 ± 0.18
11 | CCACAGCAAUAUUACGGUUG | -1.72 ± 0.047 | -0.701 ± 0.058
12 | CCACAGCAAUAUUACGUACG | -0.647 ± 0.047 | -0.02 ± 0.063
13 | CCACAGCAAUAUUACGUCUG | -3.12 ± 0.088 | -1.98 ± 0.083
14 | CCACAGCAAUAUUACGUGAC | -3.38 ± 0.16 | -2.01 ± 0.13
15 | CCACAGCAAUAUUACGUGCC | -1.6 ± 0.15 | -2.36 ± 0.21
16 | CCACAGCAAUAUUACGUUCG | -1.21 ± 0.048 | -0.208 ± 0.069
17 | CCAGAGCAAUAUUACGAACG | -0.512 ± 0.081 | 0.191 ± 0.1
18 | CCAGAGCAAUAUUACGAAGU | -4.41 ± 0.46 | -2.8 ± 0.34
19 | CCAGAGCAAUAUUACGAAUU | -4 ± 0.28 | -3.11 ± 0.43
20 | CCAGAGCAAUAUUACGAGAG | -2.95 ± 0.21 | -1.39 ± 0.23
21 | CCAGAGCAAUAUUACGAGCG | -0.698 ± 0.084 | -0.775 ± 0.14
22 | CCAGAGCAAUAUUACGAUAA | -3.17 ± 0.29 | -2.04 ± 0.2
23 | CCAGAGCAAUAUUACGAUGC | -3.48 ± 0.34 | -2.78 ± 0.29
24 | CCAGAGCAAUAUUACGCAAG | -2.15 ± 0.19 | -2.33 ± 0.29
25 | CCAGAGCAAUAUUACGCAGA | -2.8 ± 0.19 | -2.84 ± 0.44

Row | Sequence | self-splicing fitness (ln) (30 °C) | self-splicing fitness (ln) (37 °C)
26 | CCAGAGCAAUAUUACGCCAC | -3.59 ± 0.26 | -2.28 ± 0.24
27 | CCAGAGCAAUAUUACGCCAU | -2.03 ± 0.19 | -2.75 ± 0.27
28 | CCAGAGCAAUAUUACGCGAA | -4.06 ± 0.4 | -2.15 ± 0.29
29 | CCAGAGCAAUAUUACGCGGG | -3.33 ± 0.44 | 
30 | CCAGAGCAAUAUUACGCUUC | -3.48 ± 0.42 | 
31 | CCAGAGCAAUAUUACGGAAC | -2.32 ± 0.2 | -3.08 ± 0.36
32 | CCAGAGCAAUAUUACGGACA | -3.25 ± 0.44 | 
33 | CCAGAGCAAUAUUACGGCUU | -3.75 ± 0.28 | -1.8 ± 0.2
34 | CCAGAGCAAUAUUACGGGCA | -2.92 ± 0.28 | -2.64 ± 0.38
35 | CCAGAGCAAUAUUACGUAAC | -3.56 ± 0.37 | -1.96 ± 0.32
36 | CCAGAGCAAUAUUACGUCGA | -3.92 ± 0.18 | -3.12 ± 0.17
37 | CCAGAGCAAUAUUACGUGAA | -3.7 ± 0.16 | -2.32 ± 0.18
38 | CCAGAGCAAUAUUACGUGUA | -3.22 ± 0.21 | -2.08 ± 0.23
39 | CCAGAGCAAUAUUACGUGUU | -3.64 ± 0.16 | -2.88 ± 0.17
40 | CCAGAGCAAUAUUACGUUAU | -3.68 ± 0.24 | -2.2 ± 0.2
41 | CCAGAGCAAUAUUACGUUGG | -3.93 ± 0.23 | -2.57 ± 0.23
42 | CCAUAGCAAUAUUACGGAAA | -2.94 ± 0.41 | -2.36 ± 0.34
43 | CCAUAGCAAUAUUACGGAGG | -3.57 ± 0.21 | -0.997 ± 0.15
44 | CCAUAGCAAUAUUACGGCGG | -1.95 ± 0.13 | -1.6 ± 0.18
45 | CCAUAGCAAUAUUACGGGCC |  | -1.32 ± 0.23
46 | CCAUAGCAAUAUUACGGUAG | -2.01 ± 0.1 | -0.787 ± 0.11
47 | CCAUAGCAAUAUUACGGUGA | -1.18 ± 0.11 | -1.74 ± 0.12
48 | CCAUAGCAAUAUUACGUCGU | -2.4 ± 0.15 | -2.82 ± 0.23
49 | CCAUAGCAAUAUUACGUUAG | -3.33 ± 0.13 | -2.01 ± 0.13
